B1: LINE1-full (parent)
chain: UACGUAGGUGGUUUUCCCCUGAUAGUGCUAAGGGGGCCUGGAAGUUUGGACUGGGCAGAGCUCAACACAGCGUGGCAAAGUGGCUGUGGCUAGACUGCCUCUCUGGAUUCCUCGUCACUCAGCAGGGCAUCUCUGAGAGAAAUGCC

Variants of: B1
Assay: self-cleavage, relative activity (ratio to wild type); higher = more cleavage; in vitro, sequencing; the parent is a self-cleaving ribozyme

Point of comparison: U23A C146U, self-cleavage 1.27. Against it:
- A22G U132A — lower, 0.48
- A22G U132C — lower, 1.11
- U23C C66U — lower, 0.05
- U23A U132C — lower, 0.33
- A24G A142G — lower, 1.1
- A22U A50G — lower, 1.01
- U23C U47A — higher, 1.9
- A22U U62C — lower, 0.13
- A22G U109A — lower, 1.13
- A24G G53U — lower, 1.03
- U23C U91A — lower, 0.8
- U23C U26G — higher, 1.45
- U23C U112C — higher, 1.57
- A24G A57U — lower, 0.27
- A24G A57G — lower, 1.14
- A24G A42G — lower, 1.11
- U23C A69G — lower, 1.2
- A22U U130C — higher, 1.35
- A22G U100G — higher, 1.75
- U23C A138U — higher, 1.84
- A24G U73C — higher, 1.68
- A24G U73A — lower, 1.2
- A22U U112A — lower, 1.19
- A24G U62A — lower, 0.07
- A24G U62C — lower, 0.14
- U23C A24G — higher, 1.48
- A22U G60U — lower, 0.05
- U23C U29C — lower, 1.06
- A22U A121C — the same, 1.27
- A22U A67C — lower, 0.05
- A22U U45A — lower, 0.83
- A24G A67G — lower, 0.45
- U23C A50U — lower, 1
- U23C A50G — higher, 1.34
- U23A G105U — higher, 1.36
- A22U A92U — lower, 0.63
- A22U A92G — lower, 0.05
- A24G A50U — higher, 1.55
- A22U U39A — lower, 1.17
- A22U U46C — higher, 1.34
- U23C G74A — lower, 0.99
- U23A U130A — higher, 1.52
- U23A U130C — higher, 1.44
- U23C A65U — lower, 0.09
- U23C A65G — lower, 0.1
- A22G G126A — higher, 1.74
- A22G U112C — lower, 1.25
- A22G U112A — higher, 1.84
- A22U U132C — higher, 1.6
- U23A G54A — lower, 0.96
- U23A U73C — lower, 1.24
- A22U A43U — higher, 1.43
- A22G U52A — lower, 1.21
- A22U U119A — higher, 1.46
- A22U U119C — higher, 1.52
- A24G G139U — higher, 2.56
- A24G G139A — higher, 1.3
- U23C U143A — higher, 1.28
- A24G U47C — lower, 1.05
- A22G G137A — higher, 1.52
- U23A A107U — lower, 1.1
- A24C A121G — higher, 2.59
- U23C U39A — lower, 1.2
- U23C U39C — lower, 0.87
- A22U U85C — lower, 0.26
- A22G U73G — higher, 1.49
- A22G U73C — higher, 1.37
- U23A A138G — lower, 0.76
- U23A A59G — lower, 0.24
- U23A U115C — lower, 1.18
- U23C A117C — higher, 1.51
- A24G U115A — higher, 1.45
- A22U A65U — lower, 0.18
- A22U U73A — higher, 1.52
- U23A A64C — lower, 0.48
- A24G U85A — lower, 0.13
- A24G U85G — lower, 0.1
- A24G A141U — higher, 1.41
- A24G A30G — lower, 0.42
- U23C A43G — lower, 1.11
- U23C A43U — lower, 1.06
- A24G A31G — lower, 0.72
- U23C U102C — higher, 1.33
- U23C U102A — higher, 1.28
- A24G U45C — lower, 1.12
- A24G U45G — lower, 0
- U23G — lower, 1.18
- U23C — higher, 1.3
- U23A — higher, 1.3
- A22U U29C — lower, 1.24
- A22G U46A — lower, 0.95
- A24G A138G — lower, 1.07
- U23C A64C — lower, 0.29
- U23C G106U — lower, 1.04
- U23C C146A — lower, 0
- A22U G105A — higher, 1.29
- A22G U130A — higher, 1.52
- A22G U130C — higher, 1.3
- A22U U102C — lower, 1.06
- A22U G93A — lower, 0.07
- U23A U134G — lower, 0.89
- A24C G49A — lower, 0.82
- U23C U132A — higher, 1.86
- U23C U132C — higher, 1.58
- A22G G36C — lower, 0.37
- A22U A142U — higher, 1.48
- A22U A142G — higher, 1.31
- A24G U91C — lower, 0.81
- A22G U29A — lower, 1.24
- A24G U108A — higher, 1.49
- A24G U108C — higher, 1.68
- A22G C98U — lower, 0.64
- U23C G54A — lower, 0.51
- A24G A77G — higher, 1.41
- A24G A77C — higher, 2.04
- U23A U143A — higher, 2.26
- U23A U39C — lower, 0.65
- A22G G80A — higher, 2.37
- A24G G34U — lower, 0.21
- U23A A140G — higher, 1.41
- U23A A67G — lower, 0.71
- A22U U26C — lower, 1.18
- A24G U102G — lower, 0.54
- A24G U102A — lower, 1.15
- A24G U102C — higher, 1.73
- U23C C99U — lower, 0.91
- U23A A117C — higher, 1.6
- U23A U81C — lower, 0.86
- U23G A42G — higher, 1.46
- A22U U115A — lower, 0.63
- A24C G139A — higher, 1.45
- A24G U87C — lower, 0.19
- U23A U47A — higher, 1.91
- A24G C116U — lower, 0.65
- A22G U85C — lower, 0.27
- A22G U85G — lower, 0.45
- U23C A94G — lower, 0.37
- A24G U29A — higher, 1.3
- A22G U96C — lower, 0.2
- U23A A31U — lower, 0.37
- U23A A31G — lower, 0.93
- A24G A69U — lower, 0.21
- U23A U112C — lower, 1.18
- U23A A78G — lower, 1.14
- U23G U102C — lower, 1.02
- A24C A57G — lower, 1.17
- A24G U46G — higher, 1.28
- A24G U46C — higher, 1.74
- U23C A142G — higher, 1.61
- A22U A64G — lower, 0.3
- U23G U87A — lower, 0.11
- A22G G27A — lower, 1
- U23G U112C — lower, 1.07
- U23C G127C — lower, 1.12
- U23G U46A — higher, 1.3
- A24G C128A — lower, 0.65
- A22U A94U — lower, 0.17
- A22U A124G — lower, 0.47
- A24C U91A — lower, 0.57
- U23A C98G — lower, 0.14
- A22G G48U — lower, 1.05
- A24G G33C — lower, 0.8
- U23C A30U — lower, 1.15
- U23C A30G — lower, 0.89
- U23C U45G — lower, 1.02
- U23C U45C — higher, 1.7

Reference: the RNAGym collection of RNA variant scans (doi:10.7554/elife.90254)
